Here are results for 1 molecule from PMC6160459, “Identification of Peptide Mimotope Ligands for Natalizumab” (Scientific Reports, 2018).

Where two headings read alike, the source gives them in different places.

One series deals with CD49d+ JeKo-1 cells. Description: CD49d+ cell based binding assay of heat exposed natalizumab (flow cytometry). Conditions: 60 °C for 30 m, 1 h or 2 h; both GSH and non-GSH treated samples. The method, then:
Natalizumab-spiked samples in serum were diluted 25-fold in 5% FBS/DPBS/0.05% NaN3. CD49d+ JeKo-1 cells were suspended in 5% FBS/DPBS/0.05% NaN3, and 25 µl of suspension (10^5 cells) were added to 25 µl of diluted sample and incubated for 20 m on ice. Washes, secondary incubation, collection, and analysis proceeded as in the CD49d+ Cell Based Peptide Competition Assay protocol.
(§1) Natalizumab was spiked into neat serum. The samples were split in half and 100 mM Glutathione reduced (GSH, Sigma-Aldrich, St. Louis MO) in H2O was added to one set to produce a final concentration of 3 mM GSH. Samples were then incubated overnight at 37 °C to induce arm exchange of IgG4 molecules. For ELISA assays, samples were subsequently diluted 250-fold in 2.5% BSA/TBST to produce a final serum concentration of 0.4%.
(§2) Samples containing GSH treated or non-GSH treated natalizumab in serum were heated at 60 °C for 30 m, 1 h, or 2 h. Control samples were held at 4 °C. For ELISA assays, samples were subsequently diluted 250-fold in 2.5% BSA/TBST to produce a final serum concentration of 0.4%.
On the technique in general: A flow cytometer gives signals particle by particle.

Series [1] deals with MS patients. Conditions: AFFIRM study; cited from earlier work. The source says: Multiple sclerosis (MS) is a leading cause of neurologic disability that affects approximately 400,000 people in the US and 2.5 million worldwide. Natalizumab (marketed as Tysabri) is the top selling biologic drug indicated for MS and has been used to treat 177,800 patients worldwide as of November 2017[2]. […] Natalizumab is a humanized recombinant IgG4 mAb that targets the α4 chain of α4β1 integrin (also known as very late a ...

The test system of series [2] is natalizumab neutralizing anti-Idiotype (anti-Id) Fab fragment. Description: Anti-Id ELISA of heat exposed natalizumab samples. Format: binding. Conditions: 60 °C for 30 m, 1 h or 2 h; GSH or non-GSH treated samples; 0.4% serum. The method, then:
Wells of a Costar 96-well high binding plate were coated with 100 µl of natalizumab neutralizing anti-Idiotype (anti-Id) Fab fragment (Bio-Rad, Hercules CA) in phosphate-buffered saline (PBS; Corning Life Sciences) at 1 µg/ml overnight at 4 °C. The remining protocol proceeded as in peptide ELISA Protocol-1, with the following exceptions. 1) PBS/PBST was used in place of TBS/TBST (except for washes), 2) goat anti-human IgG HRP (Jackson Immunoresearch, West Grove PA) diluted 1:5000 was used as the secondary conjugate, and 3) TMB substrate was allowed to develop for 8–10 m.
as §1, §2
On the technique in general: ELISA stands for enzyme-linked immunosorbent assay.

Series [3] relates to MS patients. Conditions: cited from earlier work. The source says:
The immunosuppressive activity of natalizumab has been associated with opportunistic infection by John Cunningham (JC) virus which may lead to progressive multifocal leukoencephalopathy (PML), a serious and often-fatal opportunistic brain infection. Approximately 56–58% of MS patients are positive for anti-JC virus antibodies, which puts them at increased risk for developing PML while on natalizumab[5]–[7]. The estimated incidence of PML in patients positive for anti-JC virus antibodies is 3.87 per 1,000 patients after at least 1 month of natalizumab treatment. It increases to 11.1 per 1,000 p ... || The standard dosing regimen for natalizumab is 300 mg by IV infusion every 4 weeks. […] It has been postulated that high serum concentrations may increase the risk of PML[10],[11]. […] Conversely, low drug concentrations have been associated with a lack of natalizumab efficacy. Multiple enzyme-linked immunosorbent assays (ELISAs) to detect levels of circulating natal ...

For series [4] the following is noted: standard dosing, 300 mg by IV infusion every 4 weeks; cited from earlier work. The method, then:
The standard dosing regimen for natalizumab is 300 mg by IV infusion every 4 weeks. […] It has been postulated that high serum concentrations may increase the risk of PML[10],[11]. […] Conversely, low drug concentrations have been associated with a lack of natalizumab efficacy. Multiple enzyme-linked immunosorbent assays (ELISAs) to detect levels of circulating natal ...

A short description of series [5]: Ntz-01 peptide ELISA of heat exposed natalizumab samples. To be noted: 60 °C for 30 m, 1 h or 2 h; particularly for the GSH treated samples; 0.4% serum. Format: binding. As for the experimental part:
Wells of a NeutrAvidin-coated 96-well plate or 8-well strips (Thermo Fisher) were coated with 100 µl of biotinylated peptide at 7.5 µg/ml in molecular grade H2O (GE Healthcare Life Sciences, Logan, UT) for 1 h. Wells were washed five times with TBST. Wells were then blocked with 200 µl of 5% normal goat serum diluted from 10% normal goat serum (Thermo Fisher) in TBS for 1 h. Wells were washed five times with TBST. Antibody was spiked into 2.5% BSA in TBST (2.5% BSA/TBST) or into pooled defibrinated human AB serum (serum; Gemini, Woodland CA) diluted in 2.5% BSA/TBST. The final dilution of serum was 0.4% unless otherwise noted. Wells were incubated with 100 µl of antibody-spiked samples for 1 h and then washed five times with TBST. Bound natalizumab was detected with mouse anti-human IgG4 horse radish peroxidase (anti-IgG4-HRP; Abcam, Cambridge, MA) diluted 1:2000-1:5000 in TBST. Wells were incubated with 100 µl of diluted anti-IgG4-HRP for 30 m and then washed nine times with TBST. Turbo TMB substrate (Thermo Fisher) was added to the wells and allowed to develop for 12–15 m shielded from light. The reaction was stopped with 1 M H2SO4 (Thermo Fisher). Optical density (OD) was read at 450 nm on a Multiskan FC plate reader (Thermo Fisher) and data were analyzed with GraphPad Prism v5 or v7 software (Graphpad Software Inc, La Jolla CA).
Natalizumab was spiked into neat serum. […]

B1: natalizumab: humanized recombinant IgG4 mAb that targets the α4 chain of α4β1 integrin and a4β7 integrin (antibody, V domains shown)
VH: QVQLVQSGAEVKKPGASVKVSCKASGFNIKDTYIHWVRQAPGQRLEWMGRIDPANGYTKYDPKFQGRVTITADTSASTAYMELSSLRSEDTAVYYCAREGYYGNYGVYAMDYWGQGTLVTVSS
VL: DIQMTQSPSSLSASVGDRVTITCKTSQDINKYMAWYQQTPGKAPRLLIHYTSALQPGIPSRFSGSGSGRDYTFTISSLQPEDIATYYCLQYDNLWTFGQGTKVEIK
As for B1, the “functional cell binding with increased heat exposure” value in the series on CD49d+ JeKo-1 cells was “Decreased cell binding”. Moreover, in the series with MS patients [1], the “reduction of sustained physical disability relative to placebo” value is 42%. Moreover, the “changes in binding with heat exposure by anti-Id ELISA” value in series [2] was “Changes in binding with heat exposure were not observed”. Further, the “estimated incidence of PML” value in the series on MS patients [3] (JC virus antibody positive patients with prior use of immunosuppressants and long-term use of natalizumab (24–48 months)) is on record as 11.1 per 1,000 patients; in the series on MS patients [3] (patients positive for anti-JC virus antibodies, after at least 1 month of natalizumab treatment), 3.87 per 1,000 patients. In addition, in the series on MS patients [3] (extended interval dosing (infusion every 5–12 weeks instead of every 4 weeks)), the “decrease of PML risk” value is 94%. Further, the “variation of serum natalizumab concentrations” value in series [4] is recorded as “over 100 fold”. The “binding with increased heat exposure by Ntz-01 peptide ELISA” value in series [5] is listed as “Decreased binding”.
